Assay results published in US20200199533A1 (KING ABDULLAH UNIVERSITY OF SCIENCE AND TECHNOLOGY, published 2020).

How the values were obtained:
[1] = biological target: T1, CD43, native glycoprotein from KG1a cells (human, UniProt P16150 20-400, native glycosylation); experiment: SPR; CD43 captured from KG1a lysate on polyclonal CD43 Ab, E-Ig injected, 150 mM NaCl; apparent rate constant; 2nd experiment
T1 construct: mature
T1 sequence (looked up): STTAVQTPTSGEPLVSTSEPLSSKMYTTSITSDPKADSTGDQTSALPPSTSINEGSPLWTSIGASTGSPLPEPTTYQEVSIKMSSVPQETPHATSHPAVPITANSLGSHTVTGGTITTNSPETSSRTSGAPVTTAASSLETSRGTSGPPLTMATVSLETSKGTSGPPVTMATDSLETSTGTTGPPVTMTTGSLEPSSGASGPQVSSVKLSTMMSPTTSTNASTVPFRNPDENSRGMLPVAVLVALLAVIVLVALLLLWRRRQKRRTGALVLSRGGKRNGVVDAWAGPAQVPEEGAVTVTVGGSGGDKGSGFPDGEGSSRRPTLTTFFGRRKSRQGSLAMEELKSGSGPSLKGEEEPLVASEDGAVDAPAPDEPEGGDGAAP

[2] = biological target: T1, CD43, native glycoprotein from KG1a …; experiment: SPR; CD43 captured from KG1a lysate on polyclonal CD43 Ab, E-Ig injected (3.9-2000 nM), 150 mM NaCl; steady-state model; mean ± SEM
[3] = biological target: T1, CD43, native glycoprotein from KG1a …; experiment: SPR; CD43 captured from KG1a lysate on polyclonal CD43 Ab, E-Ig injected, 150 mM NaCl; apparent rate constant; mean ± SEM
[4] = biological target: T2, CD34, native glycoprotein from human HSPCs (KG1a, CD34^pos-BM, CD34^pos-UCB, CD34^pos-AML) (human, UniProt P28906 32-385, native glycosylation (about 120-130 kDa form); sialylated O-glycans and tyrosine sulfation are shown to matter for selectin binding); experiment: SPR; CD34 captured from CD34^pos-BM lysate on 563 mAb, E-Ig injected, 50 mM NaCl; steady-state model
T2 construct: mature; also called E-selL CD34
T2 sequence (looked up): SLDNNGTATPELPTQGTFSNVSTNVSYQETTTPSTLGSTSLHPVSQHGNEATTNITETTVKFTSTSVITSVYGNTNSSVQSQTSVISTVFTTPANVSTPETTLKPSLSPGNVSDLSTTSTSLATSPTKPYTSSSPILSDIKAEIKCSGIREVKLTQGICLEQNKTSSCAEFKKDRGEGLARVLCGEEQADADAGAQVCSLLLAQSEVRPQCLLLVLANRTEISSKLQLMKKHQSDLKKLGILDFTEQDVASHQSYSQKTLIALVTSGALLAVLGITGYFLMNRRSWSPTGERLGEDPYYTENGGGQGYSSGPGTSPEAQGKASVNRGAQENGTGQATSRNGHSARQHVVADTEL

[5] = biological target: T3, PSGL-1, native glycoprotein from human HSPCs (KG1a, CD34^pos-BM) (human, UniProt Q14242 42-412, native glycosylation and tyrosine sulfation); experiment: SPR; PSGL-1 captured from KG1a lysate on KPL-1-mAb, E-Ig injected, 150 mM NaCl; apparent rate constant; mean ± SEM
T3 construct: mature; also called P-selectin glycoprotein ligand-1
T3 sequence (looked up): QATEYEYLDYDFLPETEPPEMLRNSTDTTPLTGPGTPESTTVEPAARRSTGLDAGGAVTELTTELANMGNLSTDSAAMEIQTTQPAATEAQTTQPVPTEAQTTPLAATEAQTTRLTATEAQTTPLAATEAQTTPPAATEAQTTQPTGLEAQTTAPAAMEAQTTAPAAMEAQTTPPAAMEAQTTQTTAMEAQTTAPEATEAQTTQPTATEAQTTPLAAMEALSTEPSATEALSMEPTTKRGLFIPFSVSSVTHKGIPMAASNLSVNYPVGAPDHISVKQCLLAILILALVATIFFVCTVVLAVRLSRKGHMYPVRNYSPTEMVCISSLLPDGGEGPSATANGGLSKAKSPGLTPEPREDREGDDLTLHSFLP

[6] = biological target: T3, PSGL-1, native glycoprotein from human …; experiment: SPR; PSGL-1 captured from KG1a lysate on KPL-1-mAb, E-Ig injected, 150 mM NaCl; apparent rate constant; 1st experiment
[7] = biological target: T3, PSGL-1, native glycoprotein from human …; experiment: SPR; PSGL-1 captured from KG1a lysate on KPL-1-mAb, E-Ig injected (3.9-2000 nM), 150 mM NaCl; steady-state model; mean ± SEM
[8] = biological target: T2, CD34, native glycoprotein from human …; experiment: SPR; CD34 captured from KG1a lysate on 563-mAb, E-Ig injected (3.9-2000 nM), 150 mM NaCl; steady-state model; 1st experiment
[9] = biological target: T3, PSGL-1, native glycoprotein from human …; experiment: SPR; PSGL-1 captured from KG1a lysate on KPL-1-mAb, E-Ig injected, 150 mM NaCl; apparent rate constant; 2nd experiment
[10] = biological target: T2, CD34, native glycoprotein from human …; experiment: SPR, apparent rate constant: includes loss of CD34 or CD34⋅E-Ig from 4H11-mAb and of E-Ig from CD34⋅4H11-mAb; KG1a lysate
[11] = biological target: T1, CD43, native glycoprotein from KG1a …; experiment: SPR; CD43 captured from KG1a lysate on polyclonal CD43 Ab, E-Ig injected (3.9-2000 nM), 150 mM NaCl; steady-state model; 2nd experiment

B1: recombinant E-selectin human immunoglobulin chimeric protein (Fc fusion)
chain: WSYNTSTEAMTYDEASAYCQQRYTHLVAIQNKEEIEYLNSILSYSPSYYWIGIRKVNNVWVWVGTQKPLTEEAKNWAPGEPNNRQKDEDCVEIYIKREKDVGMWNDERCSKKKLALCYTAACTNTSCSGHGECVETINNYTCKCDPGFSGLKCEQIVNCTALESPEHGSLVCSHPLGNFSYNSSCSISCDRGYLPSSMETMQCMSSGEWSAPIPACNVVECDAVTNPANGFVECFQNPGSFPWNTTCTFDCEEGFELMGAQSLQCTSSGNWDNEKPTCKAVTCRAVRQPQNGSVRCSHSPAGEFTFKSSCNFTCEEGFMLQGPAQVECTTQGQWTQQIPVCEAFQCTALSNPERGYMNCLPSASGSFRYGSSCEFSCEQGFVLKGSKRLQCGPTGEWDNEKPTCEAVRCDAVHQPPKGLVRCAHSPIGEFTYKSSCAFSCEEGFELHGSTQLECTSQGQWTEEVPSCQVVKCSSLAVPGKINMSCSGEPVFGTVCKFACPEGWTLNGSAARTCGATGHWSGLLPTCEAPTESNIP
koff [1]: 0.00042 s⁻¹
kon [1]: 1060 M⁻¹ s⁻¹
Kd [2]: 442 nM
koff [3]: 0.00045 s⁻¹
Kd [4]: 261 nM
koff [5]: 0.00019 s⁻¹
kon [5]: 793 M⁻¹ s⁻¹
koff [6]: 0.00015 s⁻¹
kon [6]: 438 M⁻¹ s⁻¹
Kd [7]: 259 nM
Kd [8]: 145 nM
koff [9]: 0.000165 s⁻¹
kon [9]: 797 M⁻¹ s⁻¹
koff [10]: 0.00033 s⁻¹
Kd [11]: 376 nM
